Common to all, as to conditions: tags: N-terminal Flag and nuclear localization signal, C-terminal VP64
For data set [1], the target named is T1, pTac2-VP64 (PPR motif region) (Arabidopsis thaliana, UniProt Q9S7Q2 SEQ:106-632).
T1 chain: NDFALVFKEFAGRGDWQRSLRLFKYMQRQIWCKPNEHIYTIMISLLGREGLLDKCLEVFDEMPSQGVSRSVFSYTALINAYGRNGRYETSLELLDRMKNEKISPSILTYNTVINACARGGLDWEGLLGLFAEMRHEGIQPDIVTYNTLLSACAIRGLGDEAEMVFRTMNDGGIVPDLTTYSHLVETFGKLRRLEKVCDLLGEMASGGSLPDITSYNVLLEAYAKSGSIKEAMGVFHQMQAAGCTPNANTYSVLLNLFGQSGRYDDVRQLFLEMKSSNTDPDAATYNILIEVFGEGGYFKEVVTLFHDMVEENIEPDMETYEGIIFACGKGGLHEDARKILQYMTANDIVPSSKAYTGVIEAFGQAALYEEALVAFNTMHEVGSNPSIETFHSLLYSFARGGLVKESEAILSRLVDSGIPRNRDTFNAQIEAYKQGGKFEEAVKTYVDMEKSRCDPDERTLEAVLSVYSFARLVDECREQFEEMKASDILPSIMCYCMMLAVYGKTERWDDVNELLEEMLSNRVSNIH
Kind of data set: cell_activity; 8x target reporter; HEK293T, Fluc/Rluc vs pminCMV-luc2. The protocol:
(§1) A reporter vector (pminCMV-luc2, SEQ ID NO: 10) was prepared, in which the firefly luciferase gene was ligated downstream from the Minimal CMV promoter, and a multi-cloning site was placed upstream of the promoter. The predicted target sequence of each PPR was inserted into the vector at the multi-cloning site. The target sequence of each PPR ([…] for p63, […] for pTac2, and […] for GUN1, SEQ ID NOS: 11 to 13 in Sequence Listing) was determined by predicting the motif-DNA recognition codes of DNA-binding type PPR from the motif-RNA recognition codes observed in the RNA-binding type PPR. For each PPR, sequences containing 4 or 8 of target sequences were prepared, and used in the following assay. The nucleotide sequences of the vectors are shown as SEQ ID NOS: 14 to 19 in Sequence Listing. […]
(§2) The luciferase activity was compared for the cases of introducing pTac2-VP64 or GUN1-VP64 together with pminCMV-luc2 for a negative control, or the reporter vector having 4 or 8 target sequences (table mentioned below, FIG. 6). The comparison of the activity was performed on the basis of standardized scores obtained by dividing the measured values obtained with Fluc (firefly luciferase) with the measured value obtained with Rluc (Renilla luciferase) as the reference (Fluc/Rluc).

Data set [2] addresses T2, GUN1-VP64 (PPR motif region) (Arabidopsis thaliana, UniProt Q9SIC9 SEQ:234-621).
T2 chain: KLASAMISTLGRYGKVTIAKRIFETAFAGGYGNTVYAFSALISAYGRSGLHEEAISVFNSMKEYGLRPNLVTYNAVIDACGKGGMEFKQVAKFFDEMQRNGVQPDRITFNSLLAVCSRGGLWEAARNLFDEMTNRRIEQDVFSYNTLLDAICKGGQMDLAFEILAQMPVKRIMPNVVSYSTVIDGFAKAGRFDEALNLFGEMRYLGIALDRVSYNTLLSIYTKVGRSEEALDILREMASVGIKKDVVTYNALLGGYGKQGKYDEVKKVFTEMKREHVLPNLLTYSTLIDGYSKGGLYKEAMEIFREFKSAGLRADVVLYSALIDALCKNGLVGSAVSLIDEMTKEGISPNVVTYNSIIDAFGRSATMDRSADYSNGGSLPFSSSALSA
Put plainly: cell_activity; 4x target reporter; HEK293T, Fluc/Rluc vs pminCMV-luc2. The method, then: as §1, §2

Data set [3] deals with T2, GUN1-VP64 (PPR motif region). Kind of data set: cell_activity; 8x target reporter; HEK293T, Fluc/Rluc vs pminCMV-luc2. The method, then: as §1, §2

B1: pTac2 predicted target (dsDNA)
DNA 1: AACTTTCGTCACTCA
DNA 2: TGAGTGACGAAAGTT
B1: the activity in data set [1] worked out at 4.89 fold activation.

B2: GUN1 predicted target (dsDNA)
DNA 1: AATTTGTCGAT
DNA 2: ATCGACAAATT
For B2, the activity in data set [2] was 2.88 fold activation; in data set [3] it was 3.15 fold activation.

(Values after patent US20190169240, “DNA-BINDING PROTEIN USING PPR MOTIF, AND USE THEREOF” (KYUSHU UNIVERSITY, NAT'L UNIVERSITY CORPORATION, published 2019).)
